Source: patent US20200362021A1 (PHANES THERAPEUTICS, published 2020)
Read-outs that look alike come from different tables or passages of the source. No end group written: not given here. *: point of attachment. Biotin = O=C1N[C@H]2[C@H](CS[C@H]2CCCCC(=O)*)N1

How the values were obtained:
[1] = target: T1, apelin-13-biotin (…-biotin) (C-terminal biotin); assay: SPR (Biacore), apelin-13-biotin on streptavidin chip
T1 construct: also called APL13-Biotin
Protocol: (§1) Anti-apelin mAbs at four different concentrations (12.5 nM, 25 nM, 50 nM and 100 nM) were captured on the chip surface. The on- and off-rate for antibody-antigen binding were measured, curve fitted and calculated.

[2] = target: T2, pyr-apelin-13-biotin (pE-RPRLSHKGPMPF-biotin) (N-terminal pyroglutamate (pE); C-terminal biotin); assay: SPR (Biacore), pyr-apelin-13-biotin on streptavidin chip
T2 construct: also called pyrAPL13-Biotin
T2 peptide: ERPRLSHKGPMPF
Protocol: as §1

Biotin-APL17 = target: T3, Biotin-APL17; assay: ELISA, peptide on neutravidin plate, mAb 200 ng/ml, A405
T3 peptide: Biotin-KFRRQRPRLSHKGPMPF
Protocol: (§2) FIGS. 1A-1C show binding of anti-apelin mAbs to various biotinylated apelin peptides measured by ELISA. Biotinylated apelin peptides were immobilized on ELISA plates coated with neutravidin and purified recombinant rabbit anti-apelin mAbs were added for binding to the peptides on the plates. The binding was detected by adding a goat anti-rabbit IgG Fc-conjugated to alkaline phosphatase and PNPP substrate, and measured as the absorbance at 405 nm.
(§3) For the binding assay, neutravidin in carbonate coating buffer was coated on high binding ELISA plates at 1 μg/ml overnight. Peptides were added at 4 μg/ml after the plates were blocked with 1% BSA in TBS. After incubation of the plates at room temperature for 60 minutes, the plates were washed and then purified recombinant rabbit antibodies were added at 200 ng/ml. Following rabbit antibody binding to the peptides on the plates at room temperature for 90 minutes, goat anti-rabbit IgG Fc-conjugated to alkaline phosphatase was added, and antibody-antigen binding was detected by adding PNPP substrate and reading absorbance of ELISA plates at 405 nm. Each mAb was assayed in duplicate.

APL17-Biotin = target: T4, APL17-Biotin; assay: as above
T4 peptide: KFRRQRPRLSHKGPMPF-biotin
Protocol: as §2, §3

1-4 [3] = target: T5, 1-4; assay: competition ELISA, captured mAb, peptide competes with apelin-13-biotin, A405
T5 construct: also called apelin peptide 1-4 (QRPR)
T5 peptide: QRPR

[4] = target: T6, apelin 17 (competition peptide 1-17, KFRRQRPRLSHKGPMPF); assay: as above
T6 peptide: KFRRQRPRLSHKGPMPF

[5] = target: T7, apelin peptide 1-12 (QRPRLSHKGPMP); assay: as above
T7 peptide: QRPRLSHKGPMP

[6] = target: T8, apelin peptide 2-13 (RPRLSHKGPMPF); assay: as above
T8 peptide: RPRLSHKGPMPF

[7] = target: T9, apelin peptide 1-11 (QRPRLSHKGPM); assay: as above
T9 peptide: QRPRLSHKGPM

[8] = target: T10, apelin peptide 1-10 (QRPRLSHKGP); assay: as above
T10 peptide: QRPRLSHKGP

[9] = target: T11, apelin peptide 1-9 (QRPRLSHKG); assay: as above
T11 peptide: QRPRLSHKG

[10] = target: T12, apelin peptide 1-8 (QRPRLSHK); assay: as above
T12 peptide: QRPRLSHK

[11] = target: T13, apelin peptide 1-7 (QRPRLSH); assay: as above
T13 peptide: QRPRLSH

[12] = target: T14, apelin peptide 1-6 (QRPRLS); assay: as above
T14 peptide: QRPRLS

[13] = target: T15, apelin peptide 1-5 (QRPRL); assay: as above
T15 peptide: QRPRL

1-4 [14] = target: T5, 1-4; assay: as above
[15] = target: T6, apelin 17 (competition peptide 1-17, …); assay: as above
[16] = target: T7, apelin peptide 1-12 (QRPRLSHKGPMP); assay: as above
[17] = target: T8, apelin peptide 2-13 (RPRLSHKGPMPF); assay: as above
[18] = target: T9, apelin peptide 1-11 (QRPRLSHKGPM); assay: as above
[19] = target: T10, apelin peptide 1-10 (QRPRLSHKGP); assay: as above
[20] = target: T11, apelin peptide 1-9 (QRPRLSHKG); assay: as above
[21] = target: T12, apelin peptide 1-8 (QRPRLSHK); assay: as above
[22] = target: T13, apelin peptide 1-7 (QRPRLSH); assay: as above
[23] = target: T14, apelin peptide 1-6 (QRPRLS); assay: as above
[24] = target: T15, apelin peptide 1-5 (QRPRL); assay: as above
[25] = target: T16, alanine scanning peptide 1A (ARPRL); assay: as above
T16 peptide: ARPRL
Protocol: (§4) Each peptide or control sample was assayed in duplicate for a given mAb.

[26] = target: T17, alanine scanning peptide 2A (QAPRL); assay: as above
T17 peptide: QAPRL
Protocol: as §4

[27] = target: T18, alanine scanning peptide 3A (QRARL); assay: as above
T18 peptide: QRARL
Protocol: as §4

[28] = target: T19, alanine scanning peptide 4A (QRPAL); assay: as above
T19 peptide: QRPAL
Protocol: as §4

[29] = target: T20, alanine scanning peptide 5A (QRPRA); assay: as above
T20 peptide: QRPRA
Protocol: as §4

1-4 [30] = target: T5, 1-4; assay: as above
[31] = target: T6, apelin 17 (competition peptide 1-17, …); assay: as above
[32] = target: T7, apelin peptide 1-12 (QRPRLSHKGPMP); assay: as above
[33] = target: T8, apelin peptide 2-13 (RPRLSHKGPMPF); assay: as above
[34] = target: T9, apelin peptide 1-11 (QRPRLSHKGPM); assay: as above
[35] = target: T10, apelin peptide 1-10 (QRPRLSHKGP); assay: as above
[36] = target: T11, apelin peptide 1-9 (QRPRLSHKG); assay: as above
[37] = target: T12, apelin peptide 1-8 (QRPRLSHK); assay: as above
[38] = target: T13, apelin peptide 1-7 (QRPRLSH); assay: as above
[39] = target: T14, apelin peptide 1-6 (QRPRLS); assay: as above
[40] = target: T15, apelin peptide 1-5 (QRPRL); assay: as above

B1: anti-apelin mAb C1 (antibody, V domains shown)
VH: QSLEESGGRLVTPGGSLTLTCTVSGFSLSSYAMDWVRQAPGKGLEWIGVIAPNGATYYPTWARGRFTISKTSTTVDLKMTSLTAADTATYFCATYPIDAGANIWGPGTLVTVSS
VL: DPVLTQTPSSVSAAVGGTVTIGCQSSESVDNNNQLSWYQQKSGQPPKRLMYYVSTLDSGVPSRFKGSGSGTHFTLTISGVQCYDAATYYCQGGYISNLYPFGGGTEVVVK
notes: recombinant rabbit IgG made in HEK293 cells
In the case of B1, the Kd [1] is reported as 48.9 pM, the Kd [2] is reported as 0.154 pM and the binding result (Biotin-APL17) is reported as “no binding (tested: 200 ng/ml)”. B1: no binding (tested: 200 ng/ml) (APL17-Biotin); no binding (tested: peptide concentration not stated) (1-4 [3]); no binding (tested: peptide concentration not stated) [4]. B1: binds [5]; no binding (tested: peptide concentration not stated) [6]; binds [7]. B1: binds [8]; binds [9]; binds [10]. B1: binds [11]; binds [12]; binds [13].

B2: anti-apelin mAb C6 (antibody, V domains shown)
VH: QSLEESGGRLVKPDETLTLTCTVSGIDLSNYAMDWVRQAPGKGLEWIGVIAPNRRTYYPTWARGRFTISKTSSTTVDLKMTSLTTEDTATYFCATYPIEPGANIWGPGTLVTVSS
VL: DPVLTQTPSPVSAPVGGTVTIGCQSSESVDYNNQLSWYQQKPGQPPKRLMYYVSTLDSGVPSRFKGSGSGTQFTLTISDLECDDAATYYCQGGYISNIYPFGGGTEVVVK
notes: as for B1
B2 was tested, and the Kd [1] was 5.96 pM, the Kd [2] was 0.513 pM and the binding result (Biotin-APL17) was “no binding (tested: 200 ng/ml)”. B2: no binding (tested: 200 ng/ml) (APL17-Biotin); no binding (tested: peptide concentration not stated) (1-4 [14]); no binding (tested: peptide concentration not stated) [15]. B2: binds [16]; no binding (tested: peptide concentration not stated) [17]; binds [18]. B2: binds [19]; binds [20]; binds [21]. B2: binds [22]; binds [23]; binds [24]. B2: no binding (tested: peptide concentration not stated) [25]; no binding (tested: peptide concentration not stated) [26]; no binding (tested: peptide concentration not stated) [27]. B2: no binding (tested: peptide concentration not stated) [28]; no binding (tested: peptide concentration not stated) [29].

B3: anti-apelin mAb C7 (antibody, V domains shown)
VH: QSLEESGGRLAKPDETLTLTCTVSGIDLNSHAMDWVRQAPGKGLEWIGVIAPDTRTYYATWARGRFTISKTSSTSVELKMTSLTTEDTATYFCAAYPIEPGANIWGPGTLVTVSS
VL: DPVLTQTPSPVSAPVGGTVTIGCQASESVDYNNQLSWYQQKPGQAPKRLMYYVSTLDSGVPSRFKGSGSGTQFTLTISDLECDDAATYYCQGGYPYNIYPFGGGTEVVVK
notes: as for B1
In the case of B3, the Kd [1] is reported as 3.14 pM, the Kd [2] is reported as 0.326 pM and the binding result (Biotin-APL17) is reported as “no binding (tested: 200 ng/ml)”. B3: no binding (tested: 200 ng/ml) (APL17-Biotin); no binding (tested: peptide concentration not stated) (1-4 [30]); no binding (tested: peptide concentration not stated) [31]. B3: binds [32]; no binding (tested: peptide concentration not stated) [33]; binds [34]. B3: binds [35]; binds [36]; binds [37]. B3: binds [38]; binds [39]; binds [40]. B3: no binding (tested: peptide concentration not stated) [25]; no binding (tested: peptide concentration not stated) [26]; no binding (tested: peptide concentration not stated) [27]. B3: no binding (tested: peptide concentration not stated) [28]; no binding (tested: peptide concentration not stated) [29].
